Laboratory results reported in the DeepSol protein solubility set.

Assay: soluble on expression in E. coli; label from the status in PepcDB or PDB records

Row | Sequence | soluble on expression in E. coli
1 | MGSDKIHHHHHHMKTVLDVKNLSVDFAQDGRIVHAVRGVSFHVGKGETVALVGESGSGKSVTALSSVDLLPPSAQLNGSITYNGEQMIGASEAALRRVRGNDISFIFQEPMTSLNPLHTLERQITESLTLHQGLRGQAARDRIIQLLTKVGIRDPETRLGAYPHQLSGGQRQRVMIAMALANGPELLIADEPTTALDVTIQAQILDLLAELKRRERMSLLFITHDLAIVRRIADRVCVMQGGEIVEQGPTKTIFDNPQHPYTQKLLGAEPSGRPDPVPEDAKEILTTDKLRIWFPIQRGLLRRTVGHVKAVNEATLSVRQGETLGVVGESGSGKTTLALAIMRLIRSEGPIDFMDQHIPSLGKTELRTLRRDIQIVFQDPFGSLSPRMTIEQIVAEGLTVQGVNSTGRRRRVSEILEEVGLDPAMMHRYPHEFSGGQRQRIAIARAMILRPKLVVLDEPTSALDMTVQVQIVDLLRRLQRDHKLAFLFISHDLKVVRALSHKVMVMKQGDVVEAGRTEDLFANPRTTYTRELMKAAFGDASAA | not soluble
2 | MSNYTIIDLNQQPHLIPSAAQWFSQKWQIPAEAYQASMQEMLTSENHVPHWWVCLNKQQDIVAGVGVIDNDFHNRADLTPNLCALYVEPTFRHQGLAGILLTTVGDFLANSGFKKLYLLTDHTTFYERYDWEFLTMVTTEEQSCARIYQKQLRQ | not soluble
3 | MAQKKPKRNLSALKRHRQSLKRRLRNKAKKSAIKTLSKKAIQLAQEGKAEEALKIMRKAESLIDKAAKGSTLHKNAAARRKSRLMRKVRQLLEAAGAPLIGGGLSA | soluble
4 | MTSLTNAVFKRYLAVTPSAHQALKTRIKKKSSSFDKFFPQQSNSRKKQWETLNEDKASWFKRKYAHVHAREQDRAADPYGKKKAHVEKLKEIKNQAKLNQKSHKSKFQNKDIALKLMNDNPIFEYVYGTNSVYAALLNPSRNCHSRLLYHGTIPSKFLQIVDELKVTTELVDKHRLNLLTNYGVHNNIALETKPLQPVEIAYLGDMDTSSAALSIHELGFNNENIPHELPYGTKTDAKKFPLGLYLDEITDPHNIGAIIRSAYFLGVDFIVMSRRNCSPLTPVVSKTSSGALELLPIFYVDKPLEFFTKSQEMGGWTFITSHLANATSEKYTVGKTISMHDLNGLCNELPVVLVVGNESQGVRTNLKMRSDFFVEIPFGGIEKGNRAPEPIVDSLNVSVATALLIDNILTCK | soluble
5 | MIDFNQLDDLARRLSDLVPPGLRQSREELQSTFKGALQAGLGKLDLVTREEFDVQRAVLLRTREKLDALEQTVAALEARSGNAPPTSPTP | not soluble
6 | MQNISTHKYMEKLDLTWSDDSIRFINTATPRARQTFFYVQEAGDFCTSSPYFTERENLNSFLIIYTLRGKGLLKYHGSQYSLHPGTTAYINCMEHHHYECLQKQNWEFLWLHFNGPSALGYYEEFMRSNFHILDSLDPFFMESTMRRILSITQRKDIHSEILSSCLIINILTRILIENDTENLSLGFMPTY | not soluble
7 | MNQLINITLNENQEPVVSGRDLHNVLNIKTQYTKWLERMSEYGFEENVDYIAISQKRLTAQGNRTEYIDHVLKLDMAKEIAMLQRNEKSKQVRKYFIQVEKDFNSPEKIMARALLMADKKITNLTMENNQLQLDLKEAQKQARYLDLIIESKGALRVTQIAADYGMSVNKFNKTLLEFGVQHKVNGQWILYKRHMGKGYTDSHTFDYQDKNGHTRANVTTTWTQKGRLFLYELLKDNNILPLIEQEDIV | not soluble
8 | MNLFYNKEAVGDVAFLQINPTEGEYNYVTQGDVVEIQNDGEVVGYNIFNASNKATLTGNGHIKLTETLVQAFQKAIEAAGFTYKLDADFTPKFVVGYVETKDKHPDADKLSVLSVDVATEKLQIVCGAPNVEAGQKVVVAKVGAVMPSGMVIKDAELRGVASSGMICSMKELGLPNAPQEKGIMVLSDDYTVGQSFFEVLEHHHHHH | soluble
9 | MGSDKIHHHHHHMLTGVEVRHFKSWRASEWIACAPITMFFGSNSSGKTSLLQLLLLLKQTTESSDRQQVLNLGDTHSPVDAGTFPDLLHRHEQTQSLFWRIAWQLPPDLTIALPGRKNGDHLPARELAFQARIGWHQHSDSTPNLQAQASHGRAVVEEMAYQLAGYTLGMRLRDRVKQEYELYSDPAGLFSRPSRKSPRLPSPVKCYGFPDEVQKYYKHVSFLTDLEFALEQLCRRMTYLGPLREYPRRQYTWSGTPPTGVGYRGERVIEALLASRLSSDVASGTDSDQPSALETRVAEWLKTMELIADFAVRAVAPGASLFQVWVRRAQQAPEVLMTDVGFGISQMLPVITLCYYVPKGSIVILEHPEIHLHPRAQADLADVLIDAVKTRGVQIIVESHSEHLLRRLQRRIAEDVLPSDQAALYVCTTDAEGVSHIQRLHLDPYGNITNWPKDFFGDEMGDLLAMSEAAMKRQLGQV | not soluble
10 | MGSDKIHHHHHHMGTFFVDFYNEYPDTSYIKIPTNPLDRVIGQDDAVKIAMVAAKQRRHLLLVGPPGVGKSMIAQAMSFYIDRPTEEIRVVHNPQYPERPFVEIKTREEVMAEREEETSTSGIIIDPKDAPTSVAERLGYRCSKCGFYSSPSDAVCPNCNSPKIQMGTQGPFGDVFNVIGAAFGVQNNLDKVTLTRRNGDHDEIIVYERYNDKIRVLDEKTLERRRRLEKKSPSKTIVPIDRNPFVLATGASETELLGDVRHDPYGGHPQLGTLPYERVIAGAVHEAHQGVLFIDEITHLGNLQRYILTAMQEKTFPITGRNPQSAGASVRVDKVPADFILVAACNINDLPYILSPLRSRIVGNGYEILMKTTMKDTDENRMKYLQFISQEITMDGKIPHMTMEAAELIIEEGKKRARIIDKKNNELTLRLRELGGLIRAAGDIAVFKGNKLIEKEDVEEAIKLYVPVEEKITKEYGSMAAAYSSENTTSQKDFYNYNLDDRSYE | not soluble
11 | MTSVGPGQPQKELIRAQNGTYEVTKPLATGTFGSIYKVKRESDGKFFAVKCEALNMKSSLLRQMSVVLASIHHPSPFFTNIEERGTVPNRFLFIVMPLYGENLYELMMNTNKDRKFSMATGLHLAEQTLAAIRDLHRNGFIHRDIKPSHFCIGREIDGQHHQVYLLDFGLCKRPRFVKKNDEAEEQMRKNAIHYRGVVKYASVHAHQGKNLGYKDDMESWWYMVLEFFLGALPWALLNKESEQDVLHLKRRITAPMVASVWRTTPETTAGFFDLLTIIREPKDVAEFVEYDRIADGIQKLFEKSKSNTQEPPDWDCMTDYKGPGYQQVLMIAPPEVGLKPEMDFGKSDPGAGGESGEQPKKEDVDKKKKKKKKSKKKGKSNNKTTSAEEQKGGKCAPPSRVRDERRETRDETVCEIETRSR | not soluble
12 | MDICERSDEVVRYDSAQIRNGELELSSTVDDALFTDGLVATSGMLNADCRLVFGLVMFGHPLDEPMLCFTANGFELTVSIPNEDGETSSTWVIMARER | not soluble
13 | IPLKSIEVPFEGELLPGYAIISEDKAQDTLIVVGGGDTSREDLFYMLGYSGWEHDYNVLMVDLPGQGKNPNQGLHFEVDARAAISAILDWYQAPTEKIAIAGFSGGGYFTAQAVEKDKRIKAWIASTPIYDVAEVFRISFSTALKAPKTILKWGSKLVTSVNKVAEVNLNKYAWQFGQVDFITSVNEVLEQAQIVDYNKIDVPSLFLVGAGEDSELMRQSQVLYDNFKQRGIDVTLRKFSSESGADAHCQVNNFRLMHYQVFEWLNHIFKKKD | not soluble
14 | MAHHHHHHMPSEYHSSLADVSPRLSSRQRCSVRAGLSSTPRHAQGRRHLDPHHFTNLTDDAKRAEGRLGRAHVASSEQQKRADAYYATKQATVAQPPGAECNLYLKSYYYTPLSKQETPSPPPRPTTGFRADAQSTSFQLAEARLRKIKREHPQYEEEVTRALQQQHGDYSIVSTEQKISRRIAVEEYADGTNARMAQIEASTKYRGTPDLGSPAPAIKRSVPYALSEECPPRADTQLSCTSHVRLYPGCGRSSFPPETPVKPRARHLYDGPVPYDTTAASGEAYPSPPAVGERCNIYAKPTLVHVDERRHRDCVEDADSLAMKRARARSGARASQERPDFIFGPGPAPQPRPPSLRHHTEARWKAQERNAENRRTGRALYPQSHRSTSLW | not soluble
15 | MNQEDNTGGGGIFGLFKWTKDALFGTDISPSMKYKDQEERRDRSRYAQDDTNFSMKFGNDSNRRSTNLSRSNSWSGLDSTLHRKYELLPEYNENGFNSIVNGDHHSKERIRSLRSPAPIVPREPLRNEPTDTFGHRLHTKRRTINELSNSQIPFIPPQEDDPLLSKLFNKDGVNEVRRSPYKLSVKDIPGKFPSPLTKRDEIDNYYVRDEDACHKNREYKKAYFDLFAQMDLNSRDLEDLCEDVREQREQFHRNEQTYKQAYEEMRAELVNELKKSKTLFENYYSLGQKYKSLKKVLDQTISHEAELATSRERLYQEEDLKNFEIQTLKQRLSDLELKYTNLQIEKDMQRDNYESEIHDLLLQLSLRNNERKDTSAGSNIFSTGQ | soluble
16 | MAERAALEELVKLQGERVRGLKQQKASAELIEEEVAKLLKLKAQLGPDESKQKFVLKTPKGTRDYSPRQMAVREKVFDVIIRCFKRHGAEVIDTPVFELKETLMGKYGEDSKLIYDLKDQGGELLSLRYDLTVPFARYLAMNKLTNIKRYHIAKVYRRDNPAMTRGRYREFYQCDFDIAGNFDPMIPDAECLKIMCEILSSLQIGDFLVKVNDRRILDGMFAICGVSDSKFRTICSSVDKLDKVSWEEVKNEMVGEKGLAPEVADRIGDYVQQHGGVSLVEQLLQDPKLSQNKQALEGLGDLKLLFEYLTLFGIDDKISFDLSLARGLDYYTGVIYEAVLLQTPAQAGEEPLGVGSVAAGGRYDGLVGMFDPKGRKVPCVGLSIGVERIFSIVEQRLEALEEKIRTTETQVLVASAQKKLLEERLKLVSELWDAGIKAELLYKKNPKLLNQLQYCEEAGIPLVAIIGEQELKDGVIKLRSVTSREEVDVRREDLVEEIKRRTGQPLCIC | soluble
17 | MDNGWPNLQTLALFVAIVEEGSLGAGARKVGMAQPNASRAIAELEADMKAELLVRHPRGSHPTAAGLALVEHSRDLLQSVQEFTEWVTEGRTEQPLKLHVGASMTIAEALLPAWVADMRTRFPACRVDVSVMNSSQVIEAVQKGHLQLGFIETPHVPVRLHARVVQEDKLIVVISPNHEWANRTGRISLRELSETPLIVREVGSGTREALQELLADYDMAEPIQVLNSNAAVRVVVEAGAGPAVLGELALRDHLALGRLLSVPFEGSGVTRPLTAVWSGPRRLPILAGELVSIASNHI | not soluble
18 | MAHHHHHHMANYQQQYTNAEYTLPNFFETASTVAKVLTPGGRTPTVLAVDVSGQPLLPPPPPESDFAVPEPGQLEKLLCAYVGPSHTLGLSPKQLFDEEIRARNLEMEERKKEMRAITEQYERELRECMMESEQRSVVEDARRAIDLADREALEERKRPLRMYLNHNIIPLLSKGLVEVCKRRPVDPVDFLAEWLMLHNPHDDSCFEL | not soluble
19 | MAHDWEKVLLSPDTPAESALRVLDDSGLRLVLVVDEQRRLLGTLTDGDVRRALLRHVNFMTAAVADIMHREPRVALASASREQLRHLMEQHSLLHIPLLDHDDRVVGLETYQEVLQRPRRDNWVFLMAGGFGKRLRPLTDNCPKPMLLVGGKPMLQTILEGFIAAGFHRFYISVHYLPETIKNYFGDGSKWGVTIVYIEEDQPLGTGGALGLLPGTDDLPIIMMNGDILTRLDFNALLDFHEKHAADLTLCVREYDVQIPFGVVEGNDVTVTSIVEKPKHRFFVNAGIYVVTPQAIARVLPSMRVDMPDLIKQIIADQRNVSMFPIREYWLDIGRPEDFDVAQTSIAQLEHHHHHH | not soluble
